Test results published in US20140087995A1 (published 2014).
Numbered stars: 1 amine (or outer) side, 2 acyl side, 3 side chain; on linkers, the order of the positions; unused ones are H or OH. Bridge positions count the residues as written; N and C are the ends. * marks the point of attachment. C20 diacid = O=C(O)CCCCCCCCCCCCCCCCCCC(=O)*; γGlu = O=C(O)[C@H](CCC(=O)[*:2])N[*:1]

T1: human amylin receptor (human, UniProt P30988 25-474; O60896 24-148, limits assumed)
T1 construct: whole, on cells; Calcitonin receptor plus RAMP-3 gives the amylin 3(a) receptor; membranes of Amylin 3(a)/CRE-luc cells were used; also called hAmylin-R; hAmylinR
T1 sequence (looked up) 1: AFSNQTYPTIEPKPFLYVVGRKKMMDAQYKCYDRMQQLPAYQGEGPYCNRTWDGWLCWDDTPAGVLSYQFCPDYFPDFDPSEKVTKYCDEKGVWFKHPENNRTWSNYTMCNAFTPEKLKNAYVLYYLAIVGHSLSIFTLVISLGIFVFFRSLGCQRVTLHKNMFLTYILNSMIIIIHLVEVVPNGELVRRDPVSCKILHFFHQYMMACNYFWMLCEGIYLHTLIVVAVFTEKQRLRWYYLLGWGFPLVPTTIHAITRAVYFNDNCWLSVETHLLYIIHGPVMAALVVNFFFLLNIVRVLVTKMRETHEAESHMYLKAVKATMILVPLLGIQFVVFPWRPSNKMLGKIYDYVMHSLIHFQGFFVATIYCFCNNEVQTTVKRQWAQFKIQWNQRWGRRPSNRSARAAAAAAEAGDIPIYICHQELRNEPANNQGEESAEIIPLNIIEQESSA
T1 sequence (looked up) 2: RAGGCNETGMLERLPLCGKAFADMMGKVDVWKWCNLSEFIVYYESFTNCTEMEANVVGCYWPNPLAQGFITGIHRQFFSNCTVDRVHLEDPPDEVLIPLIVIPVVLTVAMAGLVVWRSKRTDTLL

B1: N^α1-[(4S)-4-carboxy-4-(19-carboxynonadecanoylamino)butanoyl]-[Glu14,Arg17,Pro21,Pro26]-h-amylin (peptide)
peptide: {C20 diacid-γGlu}-KCNTATCATQRLAEFLRHSSPNFGAPLSSTNVGSNTY-NH2
modifications: disulfide 2-7
SMILES: CC(C)C[C@H](NC(=O)[C@H](CCCNC(=N)N)NC(=O)[C@H](CCC(N)=O)NC(=O)[C@@H](NC(=O)[C@H](C)NC(=O)[C@@H]1CSSC[C@H](NC(=O)[C@H](CCCCN)NC(=O)CC[C@H](NC(=O)CCCCCCCCCCCCCCCCCCC(=O)O)C(=O)O)C(=O)N[C@@H](CC(N)=O)C(=O)N[C@@H]([C@@H](C)O)C(=O)N[C@@H](C)C(=O)N[C@@H]([C@@H](C)O)C(=O)N1)[C@@H](C)O)C(=O)N[C@@H](C)C(=O)N[C@@H](CCC(=O)O)C(=O)N[C@@H](Cc1ccccc1)C(=O)N[C@@H](CC(C)C)C(=O)N[C@@H](CCCNC(=N)N)C(=O)N[C@@H](Cc1c[nH]cn1)C(=O)N[C@@H](CO)C(=O)N[C@@H](CO)C(=O)N1CCC[C@H]1C(=O)N[C@@H](CC(N)=O)C(=O)N[C@@H](Cc1ccccc1)C(=O)NCC(=O)N[C@@H](C)C(=O)N1CCC[C@H]1C(=O)N[C@@H](CC(C)C)C(=O)N[C@@H](CO)C(=O)N[C@@H](CO)C(=O)N[C@H](C(=O)N[C@@H](CC(N)=O)C(=O)N[C@H](C(=O)NCC(=O)N[C@@H](CO)C(=O)N[C@@H](CC(N)=O)C(=O)N[C@H](C(=O)N[C@@H](Cc1ccc(O)cc1)C(N)=O)[C@@H](C)O)C(C)C)[C@@H](C)O
notes: also called 14E, 17R, 21P, 26P
B2: N^α1-[(4S)-4-carboxy-4-(19-carboxynonadecanoylamino)butanoyl]-[Glu14,Arg17,Pro21,Pro27,His35]-h-amylin (peptide)
peptide: {C20 diacid-γGlu}-KCNTATCATQRLAEFLRHSSPNFGAIPSSTNVGSHTY-NH2
modifications: disulfide 2-7
SMILES: CC[C@H](C)[C@H](NC(=O)[C@H](C)NC(=O)CNC(=O)[C@H](Cc1ccccc1)NC(=O)[C@H](CC(N)=O)NC(=O)[C@@H]1CCCN1C(=O)[C@H](CO)NC(=O)[C@H](CO)NC(=O)[C@H](Cc1c[nH]cn1)NC(=O)[C@H](CCCNC(=N)N)NC(=O)[C@H](CC(C)C)NC(=O)[C@H](Cc1ccccc1)NC(=O)[C@H](CCC(=O)O)NC(=O)[C@H](C)NC(=O)[C@H](CC(C)C)NC(=O)[C@H](CCCNC(=N)N)NC(=O)[C@H](CCC(N)=O)NC(=O)[C@@H](NC(=O)[C@H](C)NC(=O)[C@@H]1CSSC[C@H](NC(=O)[C@H](CCCCN)NC(=O)CC[C@H](NC(=O)CCCCCCCCCCCCCCCCCCC(=O)O)C(=O)O)C(=O)N[C@@H](CC(N)=O)C(=O)N[C@@H]([C@@H](C)O)C(=O)N[C@@H](C)C(=O)N[C@@H]([C@@H](C)O)C(=O)N1)[C@@H](C)O)C(=O)N1CCC[C@H]1C(=O)N[C@@H](CO)C(=O)N[C@@H](CO)C(=O)N[C@H](C(=O)N[C@@H](CC(N)=O)C(=O)N[C@H](C(=O)NCC(=O)N[C@@H](CO)C(=O)N[C@@H](Cc1c[nH]cn1)C(=O)N[C@H](C(=O)N[C@@H](Cc1ccc(O)cc1)C(N)=O)[C@@H](C)O)C(C)C)[C@@H](C)O
notes: also called 14E, 17R, 21P, 27P, 35H
B3: N^α1-[(4S)-4-carboxy-4-(19-carboxynonadecanoylamino)butanoyl]-[Glu14,Arg17,Pro21,Pro27,Pro37]-h-amylin (peptide)
peptide: {C20 diacid-γGlu}-KCNTATCATQRLAEFLRHSSPNFGAIPSSTNVGSNTP-NH2
modifications: disulfide 2-7
SMILES: CC[C@H](C)[C@H](NC(=O)[C@H](C)NC(=O)CNC(=O)[C@H](Cc1ccccc1)NC(=O)[C@H](CC(N)=O)NC(=O)[C@@H]1CCCN1C(=O)[C@H](CO)NC(=O)[C@H](CO)NC(=O)[C@H](Cc1c[nH]cn1)NC(=O)[C@H](CCCNC(=N)N)NC(=O)[C@H](CC(C)C)NC(=O)[C@H](Cc1ccccc1)NC(=O)[C@H](CCC(=O)O)NC(=O)[C@H](C)NC(=O)[C@H](CC(C)C)NC(=O)[C@H](CCCNC(=N)N)NC(=O)[C@H](CCC(N)=O)NC(=O)[C@@H](NC(=O)[C@H](C)NC(=O)[C@@H]1CSSC[C@H](NC(=O)[C@H](CCCCN)NC(=O)CC[C@H](NC(=O)CCCCCCCCCCCCCCCCCCC(=O)O)C(=O)O)C(=O)N[C@@H](CC(N)=O)C(=O)N[C@@H]([C@@H](C)O)C(=O)N[C@@H](C)C(=O)N[C@@H]([C@@H](C)O)C(=O)N1)[C@@H](C)O)C(=O)N1CCC[C@H]1C(=O)N[C@@H](CO)C(=O)N[C@@H](CO)C(=O)N[C@H](C(=O)N[C@@H](CC(N)=O)C(=O)N[C@H](C(=O)NCC(=O)N[C@@H](CO)C(=O)N[C@@H](CC(N)=O)C(=O)N[C@H](C(=O)N1CCC[C@H]1C(N)=O)[C@@H](C)O)C(C)C)[C@@H](C)O
notes: also called 14E, 17R, 21P, 27P, 37P
B4: N^α1-[(4S)-4-carboxy-4-(19-carboxynonadecanoylamino)butanoyl]-[Glu14,Arg17,Pro21,Pro27,Pro34]-h-amylin (peptide)
peptide: {C20 diacid-γGlu}-KCNTATCATQRLAEFLRHSSPNFGAIPSSTNVGPNTY-NH2
modifications: disulfide 2-7
SMILES: CC[C@H](C)[C@H](NC(=O)[C@H](C)NC(=O)CNC(=O)[C@H](Cc1ccccc1)NC(=O)[C@H](CC(N)=O)NC(=O)[C@@H]1CCCN1C(=O)[C@H](CO)NC(=O)[C@H](CO)NC(=O)[C@H](Cc1c[nH]cn1)NC(=O)[C@H](CCCNC(=N)N)NC(=O)[C@H](CC(C)C)NC(=O)[C@H](Cc1ccccc1)NC(=O)[C@H](CCC(=O)O)NC(=O)[C@H](C)NC(=O)[C@H](CC(C)C)NC(=O)[C@H](CCCNC(=N)N)NC(=O)[C@H](CCC(N)=O)NC(=O)[C@@H](NC(=O)[C@H](C)NC(=O)[C@@H]1CSSC[C@H](NC(=O)[C@H](CCCCN)NC(=O)CC[C@H](NC(=O)CCCCCCCCCCCCCCCCCCC(=O)O)C(=O)O)C(=O)N[C@@H](CC(N)=O)C(=O)N[C@@H]([C@@H](C)O)C(=O)N[C@@H](C)C(=O)N[C@@H]([C@@H](C)O)C(=O)N1)[C@@H](C)O)C(=O)N1CCC[C@H]1C(=O)N[C@@H](CO)C(=O)N[C@@H](CO)C(=O)N[C@H](C(=O)N[C@@H](CC(N)=O)C(=O)N[C@H](C(=O)NCC(=O)N1CCC[C@H]1C(=O)N[C@@H](CC(N)=O)C(=O)N[C@H](C(=O)N[C@@H](Cc1ccc(O)cc1)C(N)=O)[C@@H](C)O)C(C)C)[C@@H](C)O
notes: also called 14E, 17R, 21P, 27P, 34P
B5: N^α1-[(4S)-4-carboxy-4-(19-carboxynonadecanoylamino)butanoyl]-[Glu14,Arg17,Pro21,Pro27,Pro31]-h-amylin (peptide)
peptide: {C20 diacid-γGlu}-KCNTATCATQRLAEFLRHSSPNFGAIPSSTPVGSNTY-NH2
modifications: disulfide 2-7
SMILES: CC[C@H](C)[C@H](NC(=O)[C@H](C)NC(=O)CNC(=O)[C@H](Cc1ccccc1)NC(=O)[C@H](CC(N)=O)NC(=O)[C@@H]1CCCN1C(=O)[C@H](CO)NC(=O)[C@H](CO)NC(=O)[C@H](Cc1c[nH]cn1)NC(=O)[C@H](CCCNC(=N)N)NC(=O)[C@H](CC(C)C)NC(=O)[C@H](Cc1ccccc1)NC(=O)[C@H](CCC(=O)O)NC(=O)[C@H](C)NC(=O)[C@H](CC(C)C)NC(=O)[C@H](CCCNC(=N)N)NC(=O)[C@H](CCC(N)=O)NC(=O)[C@@H](NC(=O)[C@H](C)NC(=O)[C@@H]1CSSC[C@H](NC(=O)[C@H](CCCCN)NC(=O)CC[C@H](NC(=O)CCCCCCCCCCCCCCCCCCC(=O)O)C(=O)O)C(=O)N[C@@H](CC(N)=O)C(=O)N[C@@H]([C@@H](C)O)C(=O)N[C@@H](C)C(=O)N[C@@H]([C@@H](C)O)C(=O)N1)[C@@H](C)O)C(=O)N1CCC[C@H]1C(=O)N[C@@H](CO)C(=O)N[C@@H](CO)C(=O)N[C@H](C(=O)N1CCC[C@H]1C(=O)N[C@H](C(=O)NCC(=O)N[C@@H](CO)C(=O)N[C@@H](CC(N)=O)C(=O)N[C@H](C(=O)N[C@@H](Cc1ccc(O)cc1)C(N)=O)[C@@H](C)O)C(C)C)[C@@H](C)O
notes: also called 14E, 17R, 21P, 27P, 31P
B6: N^α1-[(4S)-4-carboxy-4-(19-carboxynonadecanoylamino)butanoyl]-[Glu14,Arg17,Pro21,Pro27,Asp35,Pro37]-h-amylin (peptide)
peptide: {C20 diacid-γGlu}-KCNTATCATQRLAEFLRHSSPNFGAIPSSTNVGSDTP-NH2
modifications: disulfide 2-7
SMILES: CC[C@H](C)[C@H](NC(=O)[C@H](C)NC(=O)CNC(=O)[C@H](Cc1ccccc1)NC(=O)[C@H](CC(N)=O)NC(=O)[C@@H]1CCCN1C(=O)[C@H](CO)NC(=O)[C@H](CO)NC(=O)[C@H](Cc1c[nH]cn1)NC(=O)[C@H](CCCNC(=N)N)NC(=O)[C@H](CC(C)C)NC(=O)[C@H](Cc1ccccc1)NC(=O)[C@H](CCC(=O)O)NC(=O)[C@H](C)NC(=O)[C@H](CC(C)C)NC(=O)[C@H](CCCNC(=N)N)NC(=O)[C@H](CCC(N)=O)NC(=O)[C@@H](NC(=O)[C@H](C)NC(=O)[C@@H]1CSSC[C@H](NC(=O)[C@H](CCCCN)NC(=O)CC[C@H](NC(=O)CCCCCCCCCCCCCCCCCCC(=O)O)C(=O)O)C(=O)N[C@@H](CC(N)=O)C(=O)N[C@@H]([C@@H](C)O)C(=O)N[C@@H](C)C(=O)N[C@@H]([C@@H](C)O)C(=O)N1)[C@@H](C)O)C(=O)N1CCC[C@H]1C(=O)N[C@@H](CO)C(=O)N[C@@H](CO)C(=O)N[C@H](C(=O)N[C@@H](CC(N)=O)C(=O)N[C@H](C(=O)NCC(=O)N[C@@H](CO)C(=O)N[C@@H](CC(=O)O)C(=O)N[C@H](C(=O)N1CCC[C@H]1C(N)=O)[C@@H](C)O)C(C)C)[C@@H](C)O
notes: also called 14E, 17R, 21P, 27P, 35D, 37P

Target: T1, human amylin receptor
Assay: SPA competition binding, displacement of 125I-rat amylin from membranes with human amylin 3(a) receptor (Assay V)
Protocol: The binding assay was performed using scintillation proximity assay (SPA) beads (RPNQ0001) from PerkinElmer and cell membranes from the Amylin 3(a)/CRE-luc cells (as described in Assay (II)) were used. Membranes were prepared in the following way; the cells were rinsed with PBS and incubated with Versene for approximately 5 min before harvesting. The cells were flushed with PBS and the cell-suspension was centrifuged for 5 min at 1000 rpm. Cells were homogenized (ultrathurrax) in a buffer containing 20 mM Na-HEPES and 10 mM EDTA (pH 7.4) and centrifuged at 20.000 rpm for 15 min. The resulting pellet was resuspended, homogenized and centrifuged (20.000 rpm, 15 min) in a buffer containing 20 mM Na-HEPES and 0.1 mM EDTA (pH 7.4, buffer 2). The resulting pellet was resuspended in buffer 2 and protein concentration was measured (BCA protein Assay, Pierce). The homogenate was kept cold during the whole procedure. The membranes were kept at −80° C. until use. The assay was performed in a 384 well Optiplate (PerkinElmer) in a total volume of 40 ul. Membranes were mixed with SPA beads. Final concentration of membranes 35 ng/μL final and SPA beads was 0.05 mg/well. Test-compounds were dissolved in DMSO and further diluted in assay buffer (50 mM Hepes, pH 7.4, 1 mM CaCl2, 5 mM MgCl₂, 0.1% OA and 0.02% Tween20). […] The final mixture was incubated with shaking at 400 rpm for 120 min at 25° C. prior to centrifugation (1500 rpm, 10 min). Samples were analyzed on TopCounter™ (Packard). The IC₅₀ was calculated using (one site binding competition analysis) GraphPad Prism5 as a measure of receptor affinity.

| IC50 | Binder |
| --- | --- |
| 674 pM | B1 |
| 554 pM | B2 |
| 72 pM | B3 |
| 100 pM | B4 |
| 204 pM | B5 |
| 105 pM | B6 |
